Measurements: patent US8822407B2, “Preparation of conjugates comprising adenine derivatives and allergenic proteins and their use for specific immunotherapy of allengenic diseases” (Universita' Degli Studi di Firenze, priority 2010, dated 2014)

How the values were obtained:
Format in all cases: cell-based, human
[1] = test system: allergen-specific T cell lines; experiment: Functional phenotype of allergen-specific T cell lines; details: SA-26E 0.085 μg/ml, alone or mixed with nDer p2 10 μg/ml
Description: Mononuclear cells from 10 atopic donors with sensitization towards Dermatophagoides pteronyssinus have been isolated by density gradient and 1×10^6 cells cultured in 2 ml complete medium plus 5% autologous serum in the presence of DP or nDer p2 allergens or their respective conjugates (DP-conj or nDer p2-conj) (all at 10 μg/ml) in 24 flat-bottomed plates (Costar). […] After 6 d incubation and addition of rIL-2 (Proleukin) (25 UI/ml), T cell blasts are further expanded by the addition of medium, fresh 5% autologous serum and 25 UI/ml rIL-2 every three days. After 15 d culture, T cell blasts from single cultures are collected, washed with sterile PBS, counted and used to assess allergen specificity, phenotype and function.
To assess allergen-specificity, 1×10^5 T cell blasts are cultured in 96 U-bottomed plates in 0.2 ml final volume in medium plus 5% autologous serum, 1×10^5 autologous irradiated (9000 R) mononuclear cells as APCs, DP or nDer p2 (10 μg/ml) and, after 3 d incubation, tritiated thymidine (3HTdR) (Amersham) is added. After further 16 hr incubation, single cultures are transferred on paper filters through the use of an Harvester apparatus (Tomtec) and radioactivity measured in a β-counter. […]

[2] = test system: allergen-specific T cell clones; experiment: Functional phenotype of allergen-specific T cell clones; details: for Clonal Efficiency (%): T cell lines derived in the presence of the stimulus
Source text: For the functional analysis of T cell clones specific for nDer p2 and nDer p2-con j, T cell lines are initially derived from MNC of two atopic donors (G. E. and M. A.) affected by bronchial asthma and allergic rhinitis and sensitized to Dermatophagoides pteronyssinus, in the presence of nDer p2- or its respective conjugate nDer p2-conj. […] 28 allergen-specific T cell clones are obtained from T cell lines specific for nDer p2 from donor two and 37 from donor one whereas 28 clones are obtained from T cell lines derived in the presence of nDer p2-conj from both donors.
The allergen-specific clones obtained in the different experimental conditions have been then assessed for their ability to produce IL-4 ([…]) and IFN-gamma (pg/ml) in the culture supernatants after polyclonal stimulation with PMA and anti-CD3 monoclonal antibody.

[3] = test system: CRTH2 cells; experiment: Phenotype of allergen-specific CRTH2 cells; details: allergen 10 μg/ml, PMA and ionomicin
Description: Mononuclear cells from peripheral blood (MNC) are isolated by density gradient (Ficoll-Hypaque) using buffy coats from Dermatophagoides pteronyssinus-sensitized donors (Servizio Immunotrasfusionale e terapie cellulari, Azienda Ospedaliero Universitaria Pediatrica A. Meyer, Firenze). 500×10^6 MNC are separated by the addition of 500 μl anti-CRTH2 monoclonal antibody for 20 min at room temperature, then extensively washed and incubated again with a secondary polyclonal antibody bound to iron microbeads and finally positively selected on a magnetic column (LS column). 10×10^6 cells are recovered by positive selection, extensively washed with sterile calcium and magnesium-free PBS buffer and cultured at the concentration 1×10^6/ml/well in complete medium plus 5% human AB serum in 24-flat bottomed plates. As stimulants, unconjugated allergens (DP or nDer p2) or conjugates (DP-conj or nDer p2-conj) (all at 10 μg/ml) have been used. Cultures have been incubated for 6 days at 37° C. in 5% CO2 humidified atmosphere and further expanded with rIL-2 25 UI/ml until 14 days when T cell blasts are collected, extensively washed, counted, adjusted at 1×10^6/ml concentration and polyclonally stimulated with PMA and ionomicin as already described to assess the intracellular production of IL-4 and IFN-gamma.

[4] = test system: allergen-specific T cell lines; experiment: Functional phenotype of allergen-specific cells with different ratios between allergen and modified adenine; details: T cell lines from atopic donors, Example 5 step d

Molecule: Nc1nc(SCCCC(=O)ON2C(=O)CCC2=O)nc2c1nc(O)n2Cc1ccccc1 [SA-26E, 4-(6-Amino-9-benzyl-8-hydroxy-9H-purin-2-ylsulfanyl)-butyric acid 2,5-dioxo-pyrrolidin-1-yl ester]
- modification of the cellular phenotype of allergen-specific T cells (TH2 towards TH1/TH0) [1]: inactive

B1: nDer p2: purified natural allergen Der p2, major allergen from the house dust mite Dermatophagoides pteronyssinus (protein, UniProt P49278 18-146, looked up)
Mite group 2 allergen Der p 2: DQVDVKDCANHEIKKVLVPGCHGSEPCIIHRGKPFQLEAVFEANQNTKTAKIEIKASIDGLEVDVPGIDPNACHYMKCPLVKGQQYDIKYTWNVPKIAPKSENVVVTVKVMGDDGVLACAIATHAKIRD
modifications: natural purified
notes: purified natural allergen Der p2, major allergen from the house dust mite Dermatophagoides pteronyssinus
- Clonal Efficiency (%) ([2]; Donor one): 30%
- Clonal Efficiency (%) ([2]; Donor two): 24%
- clones producing IL-4 alone ([2]; donor one, PMA and anti-CD3): 56.7%
- clones producing IL-4 together with IFN-gamma (TH0 phenotype) ([2]; donor one, PMA and anti-CD3): 29.7%
- clones able to produce IL-4 alone or together with IFN-gamma ([2]; donor two, PMA and anti-CD3): 75%
- % of cells expressing IFN-gamma+ ([3]; Donor #3, CRTH2 cells): 5.8%
- % of cells expressing IL-4+ ([3]; Donor #3, CRTH2 cells): 47.6%
- % of cells expressing IL-4+ IFN-gamma+ ([3]; Donor #3, CRTH2 cells): 1.3%
- % of cells expressing IFN-gamma+ ([3]; Donor #4, CRTH2 cells): 2.0%
- % of cells expressing IL-4+ ([3]; Donor #4, CRTH2 cells): 78.2%
- % of cells expressing IL-4+ IFN-gamma+ ([3]; Donor #4, CRTH2 cells): 2.3%
- % of cells expressing IFN-gamma+ [4]: 5%
- % of cells expressing IL-4+ [4]: 55.5%
